Columns and labels:
[1] = compound: CCn1nccc1Oc1cc(Sc2ccccn2)cnc1NC(=O)NC; experiment: (§1) Activation of purified human glucokinase isoform 3 (13 to 466 aa) assessed as Vmax by spectrophotometry in presence of varying concentration of glucose relative to control
[2] = compound: CNC(=O)Nc1ncc(SC2CCN(C(C)=O)CC2)cc1Oc1cccnc1C; experiment: as §1
[3] = compound: CCc1ncccc1Oc1cc(Sc2ccccn2)cnc1NC(=O)NCc1ccccn1; experiment: as §1
[4] = compound: CNC(=O)Nc1ncc(SCC2CCOCC2)cc1Oc1cccnc1C; experiment: as §1
[5] = compound: CNC(=O)Nc1ncc(SC2CCOCC2)cc1Oc1cccnc1C; experiment: as §1
[6] = compound: CCc1ncccc1Oc1cc(Sc2ccccn2)cnc1NC=O; experiment: as §1
[7] = compound: CNC(=O)Nc1ncc(SCCCO)cc1Oc1cccnc1C; experiment: as §1
[8] = compound: CCOC(=O)Nc1ncc(Sc2ccccn2)cc1Oc1cccnc1CC; experiment: as §1
[9] = compound: CCc1ncccc1Oc1cc(Sc2ccccn2)cnc1NC(=O)NCc1ccccc1O; experiment: as §1
[10] = compound: CCNC(=O)Nc1ncc(Sc2ccccn2)cc1Oc1cccnc1CC; experiment: as §1
[11] = compound: CNC(=O)Nc1ncc(SCCCOC)cc1Oc1cccnc1C; experiment: as §1
[12] = compound: CCc1ncccc1Oc1cc(Sc2ccccn2)cnc1NC(=O)NCc1cccnc1; experiment: as §1
[13] = compound: CNC(=O)Nc1ncc(SCc2ccccc2)cc1Oc1cccnc1C; experiment: as §1
[14] = compound: CNC(=O)Nc1ncc(Sc2ccccn2)cc1Oc1c(C)n[nH]c1C; experiment: as §1
[15] = compound: CCc1ncccc1Oc1cc(Sc2ccccn2)cnc1NC(=O)NCc1ccc(O)cc1; experiment: as §1
[16] = compound: CCc1ncccc1Oc1cc(Sc2ccccn2)cnc1NC(=O)NC(C)C; experiment: as §1
[17] = compound: CNC(=O)Nc1ncc(SCc2ccccn2)cc1Oc1cccnc1C; experiment: as §1
[18] = compound: CNC(=O)Nc1ncc(SC2CCN(S(C)(=O)=O)CC2)cc1Oc1cccnc1C; experiment: as §1
[19] = compound: CCc1ncccc1Oc1cc(Sc2ccccn2)cnc1NC(=O)NCc1cccc(O)c1; experiment: as §1
[20] = compound: CNC(=O)Nc1ncc(Sc2ccccn2)cc1Oc1cccnc1C; experiment: as §1
[21] = compound: CNC(=O)Nc1ncc(SC2CCN(C(=O)OC(C)(C)C)CC2)cc1Oc1cccnc1C; experiment: as §1
[22] = compound: CCc1ncccc1Oc1cc(Sc2ccccn2)cnc1NC(N)=O; experiment: as §1
[23] = compound: CCc1ncccc1Oc1cc(Sc2ccccn2)cnc1NC(=O)NC; experiment: as §1
[24] = compound: CCc1ncccc1Oc1cc(Sc2ccccn2)cnc1NC(=O)NCc1ccncc1; experiment: as §1
[25] = compound: CCc1ncccc1Oc1cc(Sc2ccccn2)cnc1NC(C)=O; experiment: as §1
[26] = compound: CCc1ncccc1Oc1cc(Sc2ccccn2)cnc1NC(=O)NCCO; experiment: as §1

B1: Hexokinase-4 (Homo sapiens), P35557 (protein)
chain: MLDDRARMEAAKKEKVEQILAEFQLQEEDLKKVMRRMQKEMDRGLRLETHEEASVKMLPTYVRSTPEGSEVGDFLSLDLGGTNFRVMLVKVGEGEEGQWSVKTKHQMYSIPEDAMTGTAEMLFDYISECISDFLDKHQMKHKKLPLGFTFSFPVRHEDIDKGILLNWTKGFKASGAEGNNVVGLLRDAIKRRGDFEMDVVAMVNDTVATMISCYYEDHQCEVGMIVGTGCNACYMEEMQNVELVEGDEGRMCVNTEWGAFGDSGELDEFLLEYDRLVDESSANPGQQLYEKLIGGKYMGELVRLVLLRLVDENLLFHGEASEQLRTRGAFETRFVSQVESDTGDRKQIYNILSTLGLRPSTTDCDIVRRACESVSTRAAHMCSAGLAGVINRMRESRSEDVMRITVGVDGSVYKLHPSFKERFHASVRRLTPSCEITFIESEEGSGRGAALVSAVACKKACMLGQ
Work on B1 yielded a Vmax [1] of 90%, a Vmax [2] of 59% and a Vmax [3] of 72%. It also gave a Vmax [4] of 88%, a Vmax [5] of 73% and a Vmax [6] of 104%. For the same protein, the Vmax [7] was 80%, the Vmax [8] was “Not active” and the Vmax [9] was 84%. For the same protein, the Vmax [10] was 64%, the Vmax [11] was 87% and the Vmax [12] was 75%. The Vmax [13] was 76%, the Vmax [14] was 53% and the Vmax [15] was 66%. The Vmax [16] was “Not active”, the Vmax [17] was 146% and the Vmax [18] was 54%. The Vmax [19] was 68%, the Vmax [20] was 74% and the Vmax [21] was 75%. It also gave a Vmax [22] of 77%, a Vmax [23] of 77% and a Vmax [24] of 73%. The Vmax [25] was “Not active” and the Vmax [26] was 66%.

Source: ChEMBL document CHEMBL3352420, “Discovery of 2-pyridylureas as glucokinase activators” (J Med Chem, 2014)
